Experimental data published in PMC5159557 (Nucleic Acids Research, 2016).
Each block holds one molecule with its values, some of them ahead of it.

Experiments:
Assay in all cases: native MS
[1] = biological target: Cas7 subunit of Escherichia coli type I-E Cascade (Escherichia coli)
[2] = biological target: T1, Cas5 subunit of Escherichia coli type I-E Cascade (Escherichia coli, UniProt Q46898 1-224)
T1 sequence: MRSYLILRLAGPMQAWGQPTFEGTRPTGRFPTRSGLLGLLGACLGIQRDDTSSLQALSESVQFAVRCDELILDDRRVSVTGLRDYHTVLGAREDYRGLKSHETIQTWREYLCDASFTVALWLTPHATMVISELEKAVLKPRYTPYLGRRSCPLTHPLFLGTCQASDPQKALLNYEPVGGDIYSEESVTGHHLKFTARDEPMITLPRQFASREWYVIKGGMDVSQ

[3] = biological target: T2, Cas6e subunit of Escherichia coli type I-E Cascade (Escherichia coli, UniProt Q46897 1-199)
T2 sequence: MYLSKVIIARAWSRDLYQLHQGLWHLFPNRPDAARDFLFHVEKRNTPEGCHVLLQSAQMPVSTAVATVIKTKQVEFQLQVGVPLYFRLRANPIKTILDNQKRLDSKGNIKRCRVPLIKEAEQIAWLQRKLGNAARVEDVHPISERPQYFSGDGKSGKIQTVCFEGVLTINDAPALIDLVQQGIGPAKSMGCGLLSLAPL

stoichiometry N [1]: 6
Molecule: Cas7 subunit of Escherichia coli type I-E Cascade (natural protein)

binding result [2]: binds
binding result [3]: binds
B1: Cse2 subunit of Escherichia coli type I-E Cascade, N-terminally fused to Strep-Tag II (natural protein)
chain: MADEIDAMALYRAWQQLDNGSCAQIRRVSEPDELRDIPAFYRLVQPFGWENPRHQQALLRMVFCLSAGKNVIRHQDKKSEQTTGISLGRALANSGRINERRIFQLIRADRTADMVQLRRLLTHAEPVLDWPLMARMLTWWGKRERQQLLEDFVLTTNKNA
